“And” between values parts separate entries of the source, which are not always exact repeats. Identical values can stand only once.
B1: γ6L: rat calcium channel γ6 subunit, long isoform (AF361343), SEQ ID NO:48 (protein, listed as Rattus norvegicus)
chain: MMWSNFFMQEEDRRRTAVGRRRAQEQQNLGLTPEREGKIKLGLLVAIVGATLAVLAVGTEFWVELNTYKTNGSAVCEAAHLGLWKVCIKRLWQADVPAGRETCGPAELPGEANCTYFKFFTTGENAHIFQRTTKKEVNLAAAVIAVLGLTAMALGCLCVIMVLSKGAEFLLRLGAVCFGLSGLLLFVSLEVFRHSVRALLQGVNPETPPAPRLAYEYSWSLGCGVGAGLILLLGGVCFLLLTLPSWPWRSLCPKRGGPTA
B2: γ4: rat calcium channel γ4 subunit (AF361341), SEQ ID NO:47 (protein, listed as Rattus norvegicus)
chain: MVRCDRGLQMLLTTAGAFAAFSLMAIAIGTDYWLYSSAHICNGTNLTMDDGPPPRRARGDLTHSGLWRVCCIEGIYKGHCFRINHFPEDNDYDHDSSEYLLRIVRASSVFPILSTILLLLGGLCIGAGRIYSRKNNIVLSAGILFVAAGLSNIIGIIVYISSNTGDPSDKRDEDKKNHYNYGWSFYFGALSFIVAETVGVLAVNIYIEKNKELRFKTKREFLKASSSSPYSRMPSYRYRRRRSRSSSRSTEASPSRDASPVGLKITGAIPMGELSMYTLSREPLKVTTAASYSPDQDAGFLQMHDFFQQDLKEGFHVSMLNRRTTPV

Target: T1, Cav3.1 (Homo sapiens, UniProt O43497)
T1 construct: expressed in transfected cells; host or cells: HEK-293, stably transfected
Experiment: Whole-cell patch clamp of Cav3.1 current in Cav3.1-HEK cells transfected with γ6, γ4, their first transmembrane domains or point mutants (Example 3)
Format: cell-based
Parameters: Activation K / Inactivation K: unit not given here
Settings: for Peak current density: Cav3.1-HEK cells, control 48.43±2.62; for Calcium current density (unit not given): Example 2, control −48.39+/−2.6, fusion series control −46.9+/−5; for Normalized Current Density: relative to vector control (100.0%), Table 3.3
Procedure: Transfection. HEK-293 cells stably transfected with the Cav3.1 α1 subunit were transiently transfected with vectors containing GFP and γ subunits cDNA when the cultures reached 50% confluency. Lipofectamine 2000 reagent (Invitrogen) was used following manufacturer's protocol.
Electrophysiology. Whole cell Ca2+ currents were recorded at room temperature using an Axon Instruments Axopatch-1D amplifier, a Digidata 1200 interface and pClamp8.0 software about 48 hours after transfection. Cell capacitance was typically around 10 pF, but ranged from 5-40 pF. Recording micropipettes were made from borosilicate glass (2-3 Mohms tip resistance), and filled with solution contained (in mM) 130 NaCl, 10 EGTA, 2 MgCl2, 1 CaCl2, 10 HEPES, 3 Tris-ATP, and 0.3 Li2GTP or 0.3 Tris-GTP. Tyrode's solution was used as the bath solution. It contained (in mM) 137 NaCl, 1 KCl, 1 MgCl2, 0.33 NaH2PO4, 2 CaCl2, 10 HEPES. Both solutions were adjusted to pH 7.4 with NaOH and 280 mOsm with sucrose.
We determined the biophysical characteristics of Cav3.1 currents in transfected HEK-293 cells and effects of the first transmembrane domain of γ4 and γ6 on these properties. Test parameters were optimized for studying Cav3.1 current. The time constant (τ) of deactivation (τdeac) was obtained by single exponential fitting of tail currents. For Cav3.1 currents, the cells were clamped at a holding potential of −100 mV, then depolarized to −20 mV for 4 msec, and repolarized to various voltages from −120 mV to −60 mV at 10 mV interval for 150 msec to elicit tail currents.
The voltage dependence of activation was measured using tail currents. For Cav3.1 currents, the cells were clamped at a holding potential equal to −100 mV, and then depolarized briefly to a conditioning potential, varying from −90 mV to +60 mV, and finally clamped at −60 mV before inactivation. Using this protocol, all tail currents are elicited at the same driving force (at −60 mV), so the current amplitude accurately reflects the number of channels opened during the different conditioning potentials.
A series of conditioning prepulses of 500 msec were used to measure voltage dependence of inactivation in our experiments. Channels initially open and then reach steady-state inactivation during the 500 msec long prepulses. The membrane potential is stepped to a fixed test potential of −20 mV, where maximal peak current is elicited. Currents elicited at each test potential reflect how many channels are not in the inactivated state after a steady-state inactivation; that is, how many channels are available to open. The conditioning prepulse potentials were changed from −120 mV to 50 mV, and the test potential is fixed at −20 mV.
Data collection and analysis. To probe the structural features necessary for the function of γ subunits, we are using HEK-293 cell line stably transfected with Cav3.1 α1 subunit. These cells are then transiently transfected with vectors containing various chimeric, truncated or mutant gamma subunits. […] There is inherent variation in calcium current density in the HEK-Cav3.1 stable cell line likely due to differences in the batch used, passenger number, extent of cellular confluence, or for other unknown reasons. The averaged current density of each test group of cells was normalized to the mean current density of a parallel control group of cells plated from the same batch of cells and analyzed on the same day. A minimum of 5 cells (typically 7 to 10) from each group was used to calculate the mean behavior of test and control cells from each days recording. At least two independent transfections were performed for each test condition. Overall, averages were obtained from 21 control groups of cells that had been transfected with empty vector over several months. The data are pooled together to reduce the variance. […] The current density of the control cells over many months justified the pooling of data recorded from different batches of cells transfected with mutated γ subunits. […]

T1 sequence (O43497 whole entry): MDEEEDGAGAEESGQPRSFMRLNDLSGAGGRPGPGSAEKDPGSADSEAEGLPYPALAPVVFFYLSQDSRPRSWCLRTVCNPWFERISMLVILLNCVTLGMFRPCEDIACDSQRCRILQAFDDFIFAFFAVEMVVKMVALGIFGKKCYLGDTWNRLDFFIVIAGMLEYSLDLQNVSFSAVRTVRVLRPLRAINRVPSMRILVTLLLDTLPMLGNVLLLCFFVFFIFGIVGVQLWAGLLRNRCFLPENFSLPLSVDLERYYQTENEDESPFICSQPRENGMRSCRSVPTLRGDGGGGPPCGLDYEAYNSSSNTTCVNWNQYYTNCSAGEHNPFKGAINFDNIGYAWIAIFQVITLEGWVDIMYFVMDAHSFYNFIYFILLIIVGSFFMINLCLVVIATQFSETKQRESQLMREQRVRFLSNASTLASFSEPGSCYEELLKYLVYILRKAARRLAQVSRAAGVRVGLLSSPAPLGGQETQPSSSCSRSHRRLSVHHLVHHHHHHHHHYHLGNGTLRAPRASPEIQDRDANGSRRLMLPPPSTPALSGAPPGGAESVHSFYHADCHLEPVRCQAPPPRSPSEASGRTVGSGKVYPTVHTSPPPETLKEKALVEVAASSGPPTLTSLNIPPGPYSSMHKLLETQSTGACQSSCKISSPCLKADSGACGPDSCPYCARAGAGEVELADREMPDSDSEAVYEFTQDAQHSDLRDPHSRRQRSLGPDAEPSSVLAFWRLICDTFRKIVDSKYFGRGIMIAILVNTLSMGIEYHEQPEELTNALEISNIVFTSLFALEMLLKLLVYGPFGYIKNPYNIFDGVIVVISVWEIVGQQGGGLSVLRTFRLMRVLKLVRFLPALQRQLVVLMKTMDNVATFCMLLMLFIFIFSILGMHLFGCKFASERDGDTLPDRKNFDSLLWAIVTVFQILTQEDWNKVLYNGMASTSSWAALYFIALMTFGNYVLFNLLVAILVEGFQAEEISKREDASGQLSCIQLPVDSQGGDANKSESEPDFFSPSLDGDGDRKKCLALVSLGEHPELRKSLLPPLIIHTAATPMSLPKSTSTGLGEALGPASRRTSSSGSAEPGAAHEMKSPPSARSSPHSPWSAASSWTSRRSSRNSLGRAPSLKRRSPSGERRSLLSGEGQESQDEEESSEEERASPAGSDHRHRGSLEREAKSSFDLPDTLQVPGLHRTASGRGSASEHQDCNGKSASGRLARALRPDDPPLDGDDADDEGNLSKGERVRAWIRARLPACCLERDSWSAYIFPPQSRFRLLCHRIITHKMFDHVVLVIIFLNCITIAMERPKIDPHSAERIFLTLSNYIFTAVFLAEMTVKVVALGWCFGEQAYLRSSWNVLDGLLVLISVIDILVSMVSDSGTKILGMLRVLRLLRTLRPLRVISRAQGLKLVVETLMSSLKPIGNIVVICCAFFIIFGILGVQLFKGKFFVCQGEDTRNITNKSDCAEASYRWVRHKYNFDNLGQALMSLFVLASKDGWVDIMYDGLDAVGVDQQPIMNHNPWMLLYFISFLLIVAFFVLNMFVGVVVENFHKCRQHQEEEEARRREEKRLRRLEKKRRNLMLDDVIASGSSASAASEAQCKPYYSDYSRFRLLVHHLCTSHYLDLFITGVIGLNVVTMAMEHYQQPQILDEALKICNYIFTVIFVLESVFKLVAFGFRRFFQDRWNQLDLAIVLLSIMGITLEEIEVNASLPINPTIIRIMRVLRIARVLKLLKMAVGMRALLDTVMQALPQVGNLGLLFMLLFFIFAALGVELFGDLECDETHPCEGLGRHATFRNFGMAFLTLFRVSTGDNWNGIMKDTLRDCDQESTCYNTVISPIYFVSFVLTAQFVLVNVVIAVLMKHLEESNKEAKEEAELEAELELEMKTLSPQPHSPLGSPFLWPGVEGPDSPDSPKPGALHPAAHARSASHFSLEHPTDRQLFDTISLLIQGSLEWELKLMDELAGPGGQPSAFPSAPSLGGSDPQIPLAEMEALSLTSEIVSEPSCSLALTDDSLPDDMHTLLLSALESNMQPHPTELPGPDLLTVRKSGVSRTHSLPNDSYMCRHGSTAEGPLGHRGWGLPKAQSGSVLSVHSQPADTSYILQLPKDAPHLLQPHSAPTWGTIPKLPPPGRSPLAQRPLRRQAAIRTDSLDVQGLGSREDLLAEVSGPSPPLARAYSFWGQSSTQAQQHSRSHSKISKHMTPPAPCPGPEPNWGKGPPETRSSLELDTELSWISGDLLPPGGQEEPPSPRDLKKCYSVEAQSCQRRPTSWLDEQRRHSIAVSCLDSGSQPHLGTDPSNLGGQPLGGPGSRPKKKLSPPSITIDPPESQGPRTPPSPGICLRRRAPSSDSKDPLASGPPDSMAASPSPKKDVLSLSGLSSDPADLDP

Molecule	Peak current density	Calcium current density (unit not given)	Decrease of peak current density from control (TM1 series, vs blank vector)	Activation K (Table 3.2)	Activation V½ (Table 3.2)	Deactivation τ @−100 mV (Table 3.2)	Inactivation K (Table 3.2)	Inactivation V½ (Table 3.2)	Inactivation τ @−20 mV (Table 3.2)	Time to peak @−25 mV (Table 3.2)	Averaged peak current (group transfected with γ6, n=10)	Decrease of Cav3.1 peak current density from control (mutant series, control 100%±4.4%)	Normalized Current Density (listed as γ6)	Activation V peak (Table 3.2)	Normalized Current Density
B1	27.85±3.32 pA/pF	−7.8+/−3.3	42%	11.99 ± 1.39	−28.12 ± 4.07 mV	2.22 ± 0.19 ms	−5.42 ± 0.34	−67.53 ± 4.81 mV	23.9 ± 1.6 ms	9.03 ± 0.57	−344.2±48.4 pA	45%	55.4%±5.7% and 55.4%	–	–
B2	48.28±3.30 pA/pF	−56.3+/−5	–	12.83 ± 0.79	−31.62 ± 3.24 mV	2.20 ± 0.11 ms	−6.04 ± 0.24	−67.77 ± 1.86 mV	27.3 ± 1.4 ms	8.37 ± 0.39	–	–	–	−29.44±1.89 mV	116.02%±11.4% and 116.0%
